According to patent publication US20100150924A1 (published 2010):

T1: endogenous gliomedin on cultured rat Schwann cells (rat, UniProt Q80WL1 1-549)
T1 construct: whole, on cells; also called Gldn
T1 sequence (looked up): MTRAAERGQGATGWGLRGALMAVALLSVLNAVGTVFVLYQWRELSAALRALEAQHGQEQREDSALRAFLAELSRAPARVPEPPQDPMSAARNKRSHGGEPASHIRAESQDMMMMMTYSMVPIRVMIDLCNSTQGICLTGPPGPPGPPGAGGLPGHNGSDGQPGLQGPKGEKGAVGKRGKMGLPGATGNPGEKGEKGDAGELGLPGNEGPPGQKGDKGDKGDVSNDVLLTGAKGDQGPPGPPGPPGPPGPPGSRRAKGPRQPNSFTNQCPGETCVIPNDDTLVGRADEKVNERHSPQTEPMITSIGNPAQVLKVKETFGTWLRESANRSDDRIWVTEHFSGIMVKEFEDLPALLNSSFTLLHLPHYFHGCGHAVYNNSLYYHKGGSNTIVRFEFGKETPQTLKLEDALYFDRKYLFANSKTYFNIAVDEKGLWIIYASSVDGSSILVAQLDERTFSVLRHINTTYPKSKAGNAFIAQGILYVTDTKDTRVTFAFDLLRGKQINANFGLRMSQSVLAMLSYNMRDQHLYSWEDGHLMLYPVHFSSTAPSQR

T2: endogenous neurofascin on cultured DRG neurons (rat, UniProt P97685 25-1240)
T2 construct: whole, on cells
T2 sequence (looked up): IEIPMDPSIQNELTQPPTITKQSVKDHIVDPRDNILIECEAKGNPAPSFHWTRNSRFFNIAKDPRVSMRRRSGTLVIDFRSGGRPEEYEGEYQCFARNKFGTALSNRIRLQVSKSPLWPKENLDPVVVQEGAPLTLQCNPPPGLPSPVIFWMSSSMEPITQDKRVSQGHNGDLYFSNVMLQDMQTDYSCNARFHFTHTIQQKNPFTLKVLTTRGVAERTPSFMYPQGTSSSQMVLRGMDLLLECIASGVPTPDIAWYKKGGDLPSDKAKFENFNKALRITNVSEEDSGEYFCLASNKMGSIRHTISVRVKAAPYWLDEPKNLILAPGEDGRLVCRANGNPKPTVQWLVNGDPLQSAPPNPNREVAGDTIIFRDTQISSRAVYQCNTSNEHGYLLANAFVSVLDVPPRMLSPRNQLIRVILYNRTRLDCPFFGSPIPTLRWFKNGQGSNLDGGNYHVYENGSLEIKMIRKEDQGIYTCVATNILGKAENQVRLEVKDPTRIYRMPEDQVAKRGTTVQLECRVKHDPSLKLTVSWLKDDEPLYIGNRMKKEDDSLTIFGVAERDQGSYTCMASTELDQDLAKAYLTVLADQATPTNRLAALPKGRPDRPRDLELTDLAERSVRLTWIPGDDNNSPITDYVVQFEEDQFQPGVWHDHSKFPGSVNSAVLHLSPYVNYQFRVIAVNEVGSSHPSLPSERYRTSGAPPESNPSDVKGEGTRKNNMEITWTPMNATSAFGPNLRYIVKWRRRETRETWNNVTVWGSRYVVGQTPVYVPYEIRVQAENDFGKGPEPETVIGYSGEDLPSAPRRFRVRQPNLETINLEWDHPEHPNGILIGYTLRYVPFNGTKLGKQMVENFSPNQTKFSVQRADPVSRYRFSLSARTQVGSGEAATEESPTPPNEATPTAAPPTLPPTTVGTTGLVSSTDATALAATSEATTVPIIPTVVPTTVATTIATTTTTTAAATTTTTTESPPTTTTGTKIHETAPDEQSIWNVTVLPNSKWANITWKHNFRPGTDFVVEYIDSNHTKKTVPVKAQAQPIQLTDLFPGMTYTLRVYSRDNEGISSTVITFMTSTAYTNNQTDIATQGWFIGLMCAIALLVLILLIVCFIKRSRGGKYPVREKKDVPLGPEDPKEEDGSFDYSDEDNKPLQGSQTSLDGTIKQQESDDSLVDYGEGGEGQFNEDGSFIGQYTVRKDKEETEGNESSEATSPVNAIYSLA


Assays:
[1] = target: T1, endogenous gliomedin on cultured rat …; test: co-clustering on rat Schwann cells after aggregation of Necl1-Fc with a secondary antibody to human Fc
Protocol: (§1) Binding experiments were done by incubating the cells with medium containing different the Fc-fusions proteins pre-incubated with anti human Fc-Cy3 as described previously (Eshed et al., 2005). For clustering experiments, purified DRG-neurons or isolated Schwann cells were incubated with medium containing the respective Fc-fusion protein as described above, washed once and grown for additional 24 (DRG) or 4 hours (Schwann) before fixing. Fc-perturbation experiments were preformed by adding […] purified proteins to the medium of dissociated DRG cultures 2 days before the induction of myelination. Fresh medium containing the Fc-fusion proteins was replaced every second day and the cultures were fixed and stained after 11-12 days of myelination.
To further determine whether Necl4 is the Schwann cell receptor for axonal Necls, we examined the ability of Necl1-Fc and Necl3-Fc to bind Schwann cells that were transfected with Necl4-specific siRNAs to block its expression (FIG. 10B). In contrast to Schwann cells transfected with a control siRNA, down-regulation of Necl4 in Schwann cells by siRNA abolished the binding of Necl1-Fc and Necl3-Fc. […] In a reciprocal set of experiments, reduction of Necl1 expression in DRG neurons by transfection of siRNA abolished the binding of Necl4-Fc (FIG. 11).

[2] = target: T2, endogenous neurofascin on cultured DRG …; test: co-clustering on DRG neurons after aggregation of Necl4-Fc
Protocol: as §1

| binding result [1] | binding result [2] | Binder |
| --- | --- | --- |
| no binding | – | Necl1-Fc (extracellular domain of Necl1 fused to the constant region of human IgG1) (Fc fusion, Produced in HEK 293T cells; also called soluble Necl1; Nel1-Fc; not shown: constant region (Fc) of human IgG1) NLSQDGYWQEQDLELGTPAPLEEALSSTVWSNPDLLASQDSQPWTSDETVVAGGTVVLKCQVKDHEDSSLQWSNPAQQTLYFGEKRALRDNRIQLVSSTPHELSISISNVALADEGEYTCSIFTMPVRTAKSLVTVLGIPQKPIITGYKSSLREKETATLNCQSSGSKPAAQLAWRKGDQELHGDQTRIQEDPNGKTFTVSSSVSFQVTRDDDGANVVCSVNHESLKGADRSTSQRIEVLYTPTAMIRPEPAHPREGQKLLLHCEGRGNPVPQQYVWVKEGSEPPLKMTQESALIFPFLNKSDSGTYGCTATSNMGSYTAYFTLNVNDPSPVPSSSST |
| – | no binding | Necl4-Fc (extracellular domain of Necl4 fused to the constant region of human IgG1) (Fc fusion, also called soluble Necl-4; soluble Necl4; not shown: constant region (Fc) of human IgG1) QEVQTENVTVAEGGVAEITCRLHQYDGSIVVIQNPARQTLFFNGTRALKDERFQLEEFSPRRVRIRLSDARLEDEGGYFCQLYTEDTHHQIATLTVLVAPENPVVEVREQAVEGGEVELSCLVPRSRPAAVLRWYRDRKELKGVSSGQENGKVWSVASTVRFRVDRKDDGGIVICEAQNQALPSGHSKQTQYVLDVQYSPTARIHASQAVVREGDTLVLTCAVTGNPRPNQIRWNRGNESLPERAEAVGETLTLPGLVSADNGTYTCEAANKHGHARALYVLVVYDPGAVVEAQTSVPY |
